Three molecules from patent publication US12364768B2, “Nectin-4 antibody conjugates and uses thereof” (ARARIS BIOTECH AG, priority 2020, dated 2025) can be followed below.

The target in one test is T1, mouse Nectin-4 (Mus musculus, UniProt Q8R007).
T1 sequence (Q8R007 31-508): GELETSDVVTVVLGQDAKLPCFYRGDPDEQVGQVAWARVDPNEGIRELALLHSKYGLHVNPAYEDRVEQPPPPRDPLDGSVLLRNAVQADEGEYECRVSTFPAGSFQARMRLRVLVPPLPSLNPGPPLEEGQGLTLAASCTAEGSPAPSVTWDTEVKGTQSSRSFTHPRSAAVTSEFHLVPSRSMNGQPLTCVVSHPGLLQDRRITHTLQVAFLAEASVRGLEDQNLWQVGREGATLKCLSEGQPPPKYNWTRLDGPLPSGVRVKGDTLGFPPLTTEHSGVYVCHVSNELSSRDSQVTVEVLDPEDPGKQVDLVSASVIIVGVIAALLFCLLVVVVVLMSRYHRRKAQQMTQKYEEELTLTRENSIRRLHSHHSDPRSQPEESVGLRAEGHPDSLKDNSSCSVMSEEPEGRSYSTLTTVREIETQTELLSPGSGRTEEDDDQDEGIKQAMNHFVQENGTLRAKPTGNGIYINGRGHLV
In words: Binding of purified humanized D6C mAbs to mouse Nectin-4. The following applies: mAb of hzD6C VH with the named VL. Here is the method:
The humanized D6C VH region was combined with human IgG1 (SEQ ID NO:18) heavy chain constant region, and each humanized D6C VL region was combined individually with the human kappa light chain constant region (SEQ ID NO:20). The humanized D6C heavy chain (SEQ ID NO:24) was co-transfected with each humanized light chain (SEQ ID NOS:26-31) individually into CHO cells in a 30 mL culture, using the parental chimeric antibody, D6C, as a benchmark. A total of 7 mAbs were generated, purified, and analyzed for titer, purity, and binding.
Analytical size-exclusion chromatography was used to measure the percent purity (% protein of interest, POI), which is preferably 95% or greater. There was a reduction in percent purity seen with the chimeric D6C (84%) and the CDR grafted hzD6C VL (94%). The I2V, N33Q, and G34A mutations in hzD6.1C VL (98%), hzD6.2C VL (95%), and hzD6.3C VL (96%), respectively, as well as the […] N33Q double mutation hzD6.4C VL (99%), resolve the purity issue.

Test [1] addresses T2, TIGIT binding to Nectin-4 expressing T24 tumor cells (Homo sapiens, UniProt Q96NY8).
T2 construct: expressed in transfected cells; host or cells: T24 clone, lentiviral transduction
T2 sequence (Q96NY8 32-510): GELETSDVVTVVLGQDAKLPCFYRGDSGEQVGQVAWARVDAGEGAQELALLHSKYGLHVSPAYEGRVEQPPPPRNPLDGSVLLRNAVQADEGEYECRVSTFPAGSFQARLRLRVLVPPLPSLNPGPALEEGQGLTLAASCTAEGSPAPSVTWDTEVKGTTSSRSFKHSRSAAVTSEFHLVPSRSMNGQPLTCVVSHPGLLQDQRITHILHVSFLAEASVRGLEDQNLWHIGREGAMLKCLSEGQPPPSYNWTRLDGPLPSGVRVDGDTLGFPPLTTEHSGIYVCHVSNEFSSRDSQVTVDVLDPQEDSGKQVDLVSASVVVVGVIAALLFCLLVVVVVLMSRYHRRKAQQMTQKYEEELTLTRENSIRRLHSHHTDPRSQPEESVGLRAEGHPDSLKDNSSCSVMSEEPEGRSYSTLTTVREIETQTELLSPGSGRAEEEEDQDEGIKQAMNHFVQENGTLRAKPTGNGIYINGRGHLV
The test is described as follows: Blocking of TIGIT-Fc binding to Nectin-4 expressing T24 tumor cells. As to conditions: rhTIGIT-Fc 40 nM; antibody at various concentrations from 400 nM, 1:2 dilutions. It is filed as cell-based. From the text:
Anti-Nectin-4 antibody was examined to determine whether it could block binding of TIGIT to Nectin-4 expressing T24 tumor cells. Stable Nectin-4 expression in a T24 clone was achieved by Nectin4-lentiviral transduction. Recombinant human TIGIT-Fc chimera was purchased from R & D Systems. Briefly, cell binding was examined on Nectin-4 expressing T24 cells, which were dispensed into wells of V-bottom 96-well assay plates (1×10^5 cells/well), spun down, and the supernatant discarded. The cells were incubated with an anti-Nectin-4 antibody (hzD6.2C-mIgG2a) or an isotype control (mIgG2a) at eight different concentrations, starting with 400 nM and then 1:2 serial dilution, incubated at 4° C. for 30 min., and then rhTIGIT-Fc was added to each well at a final concentration of 40 nM. The treated cells were incubated at 4° C. for 30 min., washed three times, and then commercial PE anti-human Fc as a secondary antibody (1:200 dilution) was added and incubated at 4° C. for 20 min. The cells were washed twice and analyzed on BD Celesta™ flow cytometry. Percent of inhibition of TIGT (40 nM) binding due to anti-Nectin-4 antibody present was measured.

B1: hzD6.3C VL: "CDR1 mutation to remove a potential deamidation site ... hzD6.3C VL N33Q (position 30c under Kabat), SEQ ID NO:15" (antibody, V domains shown)
VL: DIVMTQTPLSLPVTPGEPASISCRSSQSIVHSQGNTYLEWYLQKPGQSPQLLIYKVSNRFSGVPDRFSGSGSGTDFTLKISRVEAEDVGVYYCFQGSHVPYTFGGGTKVEIK
modifications: Synthetic sequence hzD6.3C VL
In the case of B1, the “binding to mouse Nectin-4” value with mouse Nectin-4 is given as “no binding”.

B2: hzD6.2C-mIgG2a: "an anti-Nectin-4 antibody (hzD6.2C-mIgG2a)" (antibody, V domains shown)
VH: EVQLVESGGGLVQPGGSLRLSCAASGFTFSNYDMSWVRQAPGKGLEWVATISSGGSYTYYVDSVKGRFTISRDNAKNSLYLQMNSLRAEDTAVYYCARQELGSYYAMDYWGQGTTVTVSS
VL: DIVMTQTPLSLPVTPGEPASISCRSSQSIVHSNANTYLEWYLQKPGQSPQLLIYKVSNRFSGVPDRFSGSGSGTDFTLKISRVEAEDVGVYYCFQGSHVPYTFGGGTKVEIK
On to B2, for which the “blocking of TIGIT binding” value in test [1] was “more than 70%”.

B3: hzD6.4C VL: "a FR1 and a CDR1 mutation (hzD6.4C VL I2V N33Q (positions 2 and 30c under Kabat), SEQ ID NO:16" (antibody, V domains shown)
VL: DVVMTQTPLSLPVTPGEPASISCRSSQSIVHSQGNTYLEWYLQKPGQSPQLLIYKVSNRFSGVPDRFSGSGSGTDFTLKISRVEAEDVGVYYCFQGSHVPYTFGGGTKVEIK
modifications: Synthetic sequence hzD6.4C VL
As to B3, the “binding to mouse Nectin-4” value in the test with mouse Nectin-4 is on record as “no binding”.
